Measurements from patent US20190276526A1 (AbbVie / Abbott, published 2019).

T1: Rat RGMa-His (rat) (UniProt D4A188)
T1 sequence: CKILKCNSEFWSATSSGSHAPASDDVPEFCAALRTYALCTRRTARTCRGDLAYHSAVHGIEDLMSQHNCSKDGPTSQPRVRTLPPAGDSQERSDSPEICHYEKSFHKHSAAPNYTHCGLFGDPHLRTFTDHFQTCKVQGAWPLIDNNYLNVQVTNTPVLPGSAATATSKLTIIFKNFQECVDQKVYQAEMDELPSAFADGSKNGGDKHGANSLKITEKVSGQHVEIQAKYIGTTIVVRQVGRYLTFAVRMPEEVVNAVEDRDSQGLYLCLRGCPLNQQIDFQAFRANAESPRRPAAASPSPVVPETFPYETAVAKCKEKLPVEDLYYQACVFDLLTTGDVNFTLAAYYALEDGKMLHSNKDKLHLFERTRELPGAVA

T2: hRGMa-Fc (human, UniProt Q96B86 47-422, limits assumed, biotinylated in the neogenin ELISA and the MSD assay)
T2 construct: also called biot-hRGMa-Fc; biotinylated hRGMa-Fc; not shown: Fc part
T2 sequence: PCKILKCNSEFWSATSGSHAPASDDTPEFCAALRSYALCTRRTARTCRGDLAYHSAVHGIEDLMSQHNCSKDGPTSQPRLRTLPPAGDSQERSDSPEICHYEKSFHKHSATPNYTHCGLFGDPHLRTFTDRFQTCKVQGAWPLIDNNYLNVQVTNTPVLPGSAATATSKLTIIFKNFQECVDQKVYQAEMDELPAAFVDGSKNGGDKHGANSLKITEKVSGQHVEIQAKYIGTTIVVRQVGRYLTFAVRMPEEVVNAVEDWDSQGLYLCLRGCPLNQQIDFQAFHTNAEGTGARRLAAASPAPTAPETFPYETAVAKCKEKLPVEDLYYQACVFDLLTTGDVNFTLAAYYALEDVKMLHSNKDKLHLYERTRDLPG


Legend:
Rat RGMa-His (rat) = target: T1, Rat RGMa-His (rat); test: BIAcore
hRGMa-Fc = target: T2, hRGMa-Fc; test: HCS (high content analysis) live cell binding inhibition assay: Fc-tagged RGMa complexed with Cy3-labeled anti-Fc antibody, preincubated with the antibody, then added to cells for 30 min at 37 C; blocked: RGMa-Fc binding to SH-SY5Y cells; n=2
Description: FIGS. 13A-F and 14A-H illustrate the neutralizing effects of the specified antibodies on RGMa binding to neuronal cells using a live cell binding assay on SH-SY5Y cells and rat hippocampal primary neurons. Fc-tagged RGMa and Cy3-labeled anti-Fc antibodies are complexed at 4° C. for 60 minutes, followed by an incubation of the complex with a blocking antibody at room temperature for 10 minutes. The RGMa-Cy3 +antibody complex is then added to cells together with Hoechsts 33342 for 30 minutes at 37° C. to allow binding onto the cells. The cell are then washed twice in culture medium and fixed with PFH. Cell imaging is performed with the BD Pathway and images analyzed with the Definiens Architect software.

| Binder | kon (Rat RGMa-His (rat)) [M⁻¹ s⁻¹] | IC50 (read off the curve) (hRGMa-Fc) [nM] |
| --- | --- | --- |
| AE12-1-V (antibody, V domains shown) VH: EVQLVQSGAEVKKPGASVKVSCKASGYTFTSHGISWVRQAPGQGLDWMGWISPYSGNTNYAQKLQGRVTMTTDTSTSTAYMELSSLRSEDTAVYYCARVGSGPYYYMDVWGQGTLVTVSS VL: QSALTQPRSVSGSPGQSVTISCTGTSSSVGDSIYVSWYQQHPGKAPKLMLYDVTKRPSGVPDRFSGSKSGNTASLTISGLQAEDEADYYCVSYAGTDTLFGGGTKVTVL | 22000 |  |
| AE12-6 (antibody, V domains shown, lambda light chain) VH: EVQLVQSGAEVKKPGASVKVSCKASGYIFTNYDIAWVRQAPGQGLEWMGWMNPDSGNTGFVQKFKGRVTATSNTDITTAYMELSSLTSEDTAVYYCARDRFGSGYDLDHWGQGTLVTVSS VL: SYELTQPPSVSVAPGQTARITCGGNNIGSKSVHWYQQKPGQAPVLVVYDDSDRPSGIPERFSGSNSGNTATLTISRVEAGDEADYYCQVWGSSSDHYVFGTGTKVTVL |  | ~10 |
